Laboratory results reported in US20250215104A1.

Legend:
[1] = target: T1, human suPAR (hsuPAR) recombinant protein (human), Q03405; assay: BLI (Octet Red96E), hsuPAR 2 µg/mL on streptavidin sensor, vitronectin as analyte
[2] = target: T1, human suPAR (hsuPAR) recombinant …; assay: BLI, with WAb0014 against without; details: remark: other sources report otherwise
[3] = target: T1, human suPAR (hsuPAR) recombinant …; assay: BLI (Octet Red96E), WAb0014 on AHC sensor, hsuPAR captured, vitronectin as analyte (in the presence of WAb0014)

T1 sequence (Q03405 23-303): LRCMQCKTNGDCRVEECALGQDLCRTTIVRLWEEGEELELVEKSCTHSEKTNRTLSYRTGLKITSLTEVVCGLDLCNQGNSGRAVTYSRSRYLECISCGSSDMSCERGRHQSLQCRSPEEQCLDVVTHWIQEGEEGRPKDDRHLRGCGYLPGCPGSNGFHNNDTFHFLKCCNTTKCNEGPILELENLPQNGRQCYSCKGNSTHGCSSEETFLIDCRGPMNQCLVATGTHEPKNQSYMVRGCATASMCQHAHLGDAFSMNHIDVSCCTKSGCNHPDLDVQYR

Kd [1]: 13.5 nM | fold reduction in affinity in the presence of WAb0014 [2]: 5 fold | Kd [3]: 62.2 nM
B1: vitronectin, P04004 20-478 (ligand)
chain: DQESCKGRCTEGFNVDKKCQCDELCSYYQSCCTDYTAECKPQVTRGDVFTMPEDEYTVYDDGEEKNNATVHEQVGGPSLTSDLQAQSKGNPEQTPVLKPEEEAPAPEVGASKPEGIDSRPETLHPGRPQPPAEEELCSGKPFDAFTDLKNGSLFAFRGQYCYELDEKAVRPGYPKLIRDVWGIEGPIDAAFTRINCQGKTYLFKGSQYWRFEDGVLDPDYPRNISDGFDGIPDNVDAALALPAHSYSGRERVYFFKGKQYWEYQFQHQPSQEECEGSSLSAVFEHFAMMQRDSWEDIFELLFWGRTSAGTRQPQFISRDWHGVPGQVDAAMAGRIYISGMAPRPSLAKKQRFRHRNRKGYRSQRGHSRGRNQNSRRPSRATWLSLFSSEESNLGANNYDDYRMDWLVPATCEPIQSVFFFSGDKYYRVNLRTRRVDTVDPPYPRSIAQYWLGCPAPGHL
